According to patent US20240228586:

Target: M-L3-IL12 (masked mouse IL-12 whose linker contains 3 repeats of LSGRSDNH) (UniProt Q60837)
Sequence (Q60837 whole entry, looked up): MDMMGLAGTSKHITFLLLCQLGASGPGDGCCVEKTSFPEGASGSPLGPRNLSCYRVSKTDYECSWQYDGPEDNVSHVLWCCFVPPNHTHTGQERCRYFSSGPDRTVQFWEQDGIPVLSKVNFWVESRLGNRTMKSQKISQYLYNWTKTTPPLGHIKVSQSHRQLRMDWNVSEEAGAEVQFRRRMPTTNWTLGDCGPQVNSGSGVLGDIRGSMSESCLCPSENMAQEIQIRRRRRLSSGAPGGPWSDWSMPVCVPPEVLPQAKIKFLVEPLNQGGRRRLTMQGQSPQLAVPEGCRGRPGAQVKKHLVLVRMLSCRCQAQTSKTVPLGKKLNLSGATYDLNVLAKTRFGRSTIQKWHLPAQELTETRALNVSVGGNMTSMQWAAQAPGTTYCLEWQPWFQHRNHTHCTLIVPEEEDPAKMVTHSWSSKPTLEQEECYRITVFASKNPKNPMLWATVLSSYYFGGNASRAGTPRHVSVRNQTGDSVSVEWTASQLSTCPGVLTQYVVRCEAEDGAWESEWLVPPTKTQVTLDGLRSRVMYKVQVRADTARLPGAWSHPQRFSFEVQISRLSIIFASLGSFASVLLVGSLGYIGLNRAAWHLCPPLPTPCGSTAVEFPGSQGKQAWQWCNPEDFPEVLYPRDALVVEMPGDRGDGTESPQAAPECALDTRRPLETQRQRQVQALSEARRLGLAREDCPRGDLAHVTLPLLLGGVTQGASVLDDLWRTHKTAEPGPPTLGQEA

## recombinant human urokinase plasminogen activator
  in vitro cleavage, 30 min at 37° C., SDS-PAGE: Decrease of molecular weight from ˜105 kDa to ˜60 kDa indicates proteolytic cleavage of IL12Rβ1-VP-IL12 and IL12Rβ1-LS-IL12
